The target in the test is T1, NP-1/Fc (Neuropilin-1/Fc, R&D Systems).
T1 construct: Bought reagent; also called Npn-1
As to the kind of experiment: competition with 250 pM ^125I-VEGF165 on NP-1/Fc-coated plates, 4° C., 2 h. Here is the method: The next day all wells, even control wells lacking NP-1/Fc, were blocked 2 hrs with blocking buffer (1% BSA in D-PBS with 0.05% v/v Tween-20) then washed 4× with PBST (D-PBS/0.05% v/v Tween-20) before starting the assay. All points were derived from triplicate wells, and for each set of replicates in NP-1/Fc-coated wells, a companion set in the absence of the receptor was included. […] After addition of the appropriate solutions, microtiter plates were incubated at 4° C. for 2 hours. Following the incubation, plates were hand-washed 5 times with D-PBS containing 0.05% Tween-20 and 0.1% BSA. […] VEGF₁₆₅ (Cat. No. 100-20) was obtained from Peprotech.

Starred links: 1 amine or outer side, 2 acyl side, 3 side chain; linkers in the order of their positions; H or OH if unused. No end group written: not given here. NH(CH2)3(OCH2CH2)2O(CH2)3NH = C(CN[*:1])COCCOCCOCCCN[*:2]; Oregon Green = Oregon Green fluorescent reporter dye

A word on the IC50: it is the concentration that inhibits the measured activity by half. High values mean lower potency, low ones higher potency.

T1 sequence (Q9QWJ9 22-855): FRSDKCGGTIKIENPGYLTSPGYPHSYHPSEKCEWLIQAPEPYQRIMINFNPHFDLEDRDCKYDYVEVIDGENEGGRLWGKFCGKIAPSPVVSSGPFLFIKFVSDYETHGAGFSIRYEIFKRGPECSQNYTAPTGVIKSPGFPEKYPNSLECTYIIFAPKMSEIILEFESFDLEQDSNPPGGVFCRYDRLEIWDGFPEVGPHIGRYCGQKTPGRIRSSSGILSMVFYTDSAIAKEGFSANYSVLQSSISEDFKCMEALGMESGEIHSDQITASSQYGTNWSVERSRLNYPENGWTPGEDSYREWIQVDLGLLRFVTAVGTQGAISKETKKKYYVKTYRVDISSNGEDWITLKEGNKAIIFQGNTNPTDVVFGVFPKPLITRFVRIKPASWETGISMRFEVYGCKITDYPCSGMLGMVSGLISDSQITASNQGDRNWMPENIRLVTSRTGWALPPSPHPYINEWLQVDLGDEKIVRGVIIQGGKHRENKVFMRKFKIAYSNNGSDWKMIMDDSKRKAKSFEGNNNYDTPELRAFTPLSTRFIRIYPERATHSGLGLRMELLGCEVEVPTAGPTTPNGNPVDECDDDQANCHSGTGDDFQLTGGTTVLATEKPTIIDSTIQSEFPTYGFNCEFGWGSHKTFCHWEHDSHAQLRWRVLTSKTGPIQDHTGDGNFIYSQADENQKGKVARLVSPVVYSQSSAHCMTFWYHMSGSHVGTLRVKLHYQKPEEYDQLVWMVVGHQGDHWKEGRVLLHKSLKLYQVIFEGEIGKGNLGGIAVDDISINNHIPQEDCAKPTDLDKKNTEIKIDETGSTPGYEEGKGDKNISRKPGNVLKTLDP

B1: Tetramer BRU-346: TKPPR-K(RPPKT)-K[K(RPPKT)TKPPR]-G-Z-OG (peptide)
chain: TKPPRKRPPKTKKRPPKTTKPPRG-{NH(CH2)3(OCH2CH2)2O(CH2)3NH-Oregon Green}
modifications: also: branched on lysine core: TKPPR units linked via C-terminal Arg to Lys side chains, letters 7-11 and 14-18 written reversed, not a linear chain
notes: also called Reverse Tetramer; tetrameric TKPPR linked to a different scaffold through the C-terminal amino acid
B1: the IC50 is 8 µM.

Source of the values: US20110262366A1 (published 2011).
